From PMC2958304

Molecular target: Fat (Ft), full-length (pAct-ft) (Drosophila) (UniProt P33450)
Assay: cell aggregation assay; S2 cells transfected with ft mixed with S2 cells transfected with ds (one set cotransfected with pMK33B fj forms, with or without CuSO4 for 16 hr); rotated 100 rpm 2 hr, immunolabelled; percent of ft-expressing cells binding to ds-expressing cells counted

UniProt P33450, sequence (P33450 36-5147): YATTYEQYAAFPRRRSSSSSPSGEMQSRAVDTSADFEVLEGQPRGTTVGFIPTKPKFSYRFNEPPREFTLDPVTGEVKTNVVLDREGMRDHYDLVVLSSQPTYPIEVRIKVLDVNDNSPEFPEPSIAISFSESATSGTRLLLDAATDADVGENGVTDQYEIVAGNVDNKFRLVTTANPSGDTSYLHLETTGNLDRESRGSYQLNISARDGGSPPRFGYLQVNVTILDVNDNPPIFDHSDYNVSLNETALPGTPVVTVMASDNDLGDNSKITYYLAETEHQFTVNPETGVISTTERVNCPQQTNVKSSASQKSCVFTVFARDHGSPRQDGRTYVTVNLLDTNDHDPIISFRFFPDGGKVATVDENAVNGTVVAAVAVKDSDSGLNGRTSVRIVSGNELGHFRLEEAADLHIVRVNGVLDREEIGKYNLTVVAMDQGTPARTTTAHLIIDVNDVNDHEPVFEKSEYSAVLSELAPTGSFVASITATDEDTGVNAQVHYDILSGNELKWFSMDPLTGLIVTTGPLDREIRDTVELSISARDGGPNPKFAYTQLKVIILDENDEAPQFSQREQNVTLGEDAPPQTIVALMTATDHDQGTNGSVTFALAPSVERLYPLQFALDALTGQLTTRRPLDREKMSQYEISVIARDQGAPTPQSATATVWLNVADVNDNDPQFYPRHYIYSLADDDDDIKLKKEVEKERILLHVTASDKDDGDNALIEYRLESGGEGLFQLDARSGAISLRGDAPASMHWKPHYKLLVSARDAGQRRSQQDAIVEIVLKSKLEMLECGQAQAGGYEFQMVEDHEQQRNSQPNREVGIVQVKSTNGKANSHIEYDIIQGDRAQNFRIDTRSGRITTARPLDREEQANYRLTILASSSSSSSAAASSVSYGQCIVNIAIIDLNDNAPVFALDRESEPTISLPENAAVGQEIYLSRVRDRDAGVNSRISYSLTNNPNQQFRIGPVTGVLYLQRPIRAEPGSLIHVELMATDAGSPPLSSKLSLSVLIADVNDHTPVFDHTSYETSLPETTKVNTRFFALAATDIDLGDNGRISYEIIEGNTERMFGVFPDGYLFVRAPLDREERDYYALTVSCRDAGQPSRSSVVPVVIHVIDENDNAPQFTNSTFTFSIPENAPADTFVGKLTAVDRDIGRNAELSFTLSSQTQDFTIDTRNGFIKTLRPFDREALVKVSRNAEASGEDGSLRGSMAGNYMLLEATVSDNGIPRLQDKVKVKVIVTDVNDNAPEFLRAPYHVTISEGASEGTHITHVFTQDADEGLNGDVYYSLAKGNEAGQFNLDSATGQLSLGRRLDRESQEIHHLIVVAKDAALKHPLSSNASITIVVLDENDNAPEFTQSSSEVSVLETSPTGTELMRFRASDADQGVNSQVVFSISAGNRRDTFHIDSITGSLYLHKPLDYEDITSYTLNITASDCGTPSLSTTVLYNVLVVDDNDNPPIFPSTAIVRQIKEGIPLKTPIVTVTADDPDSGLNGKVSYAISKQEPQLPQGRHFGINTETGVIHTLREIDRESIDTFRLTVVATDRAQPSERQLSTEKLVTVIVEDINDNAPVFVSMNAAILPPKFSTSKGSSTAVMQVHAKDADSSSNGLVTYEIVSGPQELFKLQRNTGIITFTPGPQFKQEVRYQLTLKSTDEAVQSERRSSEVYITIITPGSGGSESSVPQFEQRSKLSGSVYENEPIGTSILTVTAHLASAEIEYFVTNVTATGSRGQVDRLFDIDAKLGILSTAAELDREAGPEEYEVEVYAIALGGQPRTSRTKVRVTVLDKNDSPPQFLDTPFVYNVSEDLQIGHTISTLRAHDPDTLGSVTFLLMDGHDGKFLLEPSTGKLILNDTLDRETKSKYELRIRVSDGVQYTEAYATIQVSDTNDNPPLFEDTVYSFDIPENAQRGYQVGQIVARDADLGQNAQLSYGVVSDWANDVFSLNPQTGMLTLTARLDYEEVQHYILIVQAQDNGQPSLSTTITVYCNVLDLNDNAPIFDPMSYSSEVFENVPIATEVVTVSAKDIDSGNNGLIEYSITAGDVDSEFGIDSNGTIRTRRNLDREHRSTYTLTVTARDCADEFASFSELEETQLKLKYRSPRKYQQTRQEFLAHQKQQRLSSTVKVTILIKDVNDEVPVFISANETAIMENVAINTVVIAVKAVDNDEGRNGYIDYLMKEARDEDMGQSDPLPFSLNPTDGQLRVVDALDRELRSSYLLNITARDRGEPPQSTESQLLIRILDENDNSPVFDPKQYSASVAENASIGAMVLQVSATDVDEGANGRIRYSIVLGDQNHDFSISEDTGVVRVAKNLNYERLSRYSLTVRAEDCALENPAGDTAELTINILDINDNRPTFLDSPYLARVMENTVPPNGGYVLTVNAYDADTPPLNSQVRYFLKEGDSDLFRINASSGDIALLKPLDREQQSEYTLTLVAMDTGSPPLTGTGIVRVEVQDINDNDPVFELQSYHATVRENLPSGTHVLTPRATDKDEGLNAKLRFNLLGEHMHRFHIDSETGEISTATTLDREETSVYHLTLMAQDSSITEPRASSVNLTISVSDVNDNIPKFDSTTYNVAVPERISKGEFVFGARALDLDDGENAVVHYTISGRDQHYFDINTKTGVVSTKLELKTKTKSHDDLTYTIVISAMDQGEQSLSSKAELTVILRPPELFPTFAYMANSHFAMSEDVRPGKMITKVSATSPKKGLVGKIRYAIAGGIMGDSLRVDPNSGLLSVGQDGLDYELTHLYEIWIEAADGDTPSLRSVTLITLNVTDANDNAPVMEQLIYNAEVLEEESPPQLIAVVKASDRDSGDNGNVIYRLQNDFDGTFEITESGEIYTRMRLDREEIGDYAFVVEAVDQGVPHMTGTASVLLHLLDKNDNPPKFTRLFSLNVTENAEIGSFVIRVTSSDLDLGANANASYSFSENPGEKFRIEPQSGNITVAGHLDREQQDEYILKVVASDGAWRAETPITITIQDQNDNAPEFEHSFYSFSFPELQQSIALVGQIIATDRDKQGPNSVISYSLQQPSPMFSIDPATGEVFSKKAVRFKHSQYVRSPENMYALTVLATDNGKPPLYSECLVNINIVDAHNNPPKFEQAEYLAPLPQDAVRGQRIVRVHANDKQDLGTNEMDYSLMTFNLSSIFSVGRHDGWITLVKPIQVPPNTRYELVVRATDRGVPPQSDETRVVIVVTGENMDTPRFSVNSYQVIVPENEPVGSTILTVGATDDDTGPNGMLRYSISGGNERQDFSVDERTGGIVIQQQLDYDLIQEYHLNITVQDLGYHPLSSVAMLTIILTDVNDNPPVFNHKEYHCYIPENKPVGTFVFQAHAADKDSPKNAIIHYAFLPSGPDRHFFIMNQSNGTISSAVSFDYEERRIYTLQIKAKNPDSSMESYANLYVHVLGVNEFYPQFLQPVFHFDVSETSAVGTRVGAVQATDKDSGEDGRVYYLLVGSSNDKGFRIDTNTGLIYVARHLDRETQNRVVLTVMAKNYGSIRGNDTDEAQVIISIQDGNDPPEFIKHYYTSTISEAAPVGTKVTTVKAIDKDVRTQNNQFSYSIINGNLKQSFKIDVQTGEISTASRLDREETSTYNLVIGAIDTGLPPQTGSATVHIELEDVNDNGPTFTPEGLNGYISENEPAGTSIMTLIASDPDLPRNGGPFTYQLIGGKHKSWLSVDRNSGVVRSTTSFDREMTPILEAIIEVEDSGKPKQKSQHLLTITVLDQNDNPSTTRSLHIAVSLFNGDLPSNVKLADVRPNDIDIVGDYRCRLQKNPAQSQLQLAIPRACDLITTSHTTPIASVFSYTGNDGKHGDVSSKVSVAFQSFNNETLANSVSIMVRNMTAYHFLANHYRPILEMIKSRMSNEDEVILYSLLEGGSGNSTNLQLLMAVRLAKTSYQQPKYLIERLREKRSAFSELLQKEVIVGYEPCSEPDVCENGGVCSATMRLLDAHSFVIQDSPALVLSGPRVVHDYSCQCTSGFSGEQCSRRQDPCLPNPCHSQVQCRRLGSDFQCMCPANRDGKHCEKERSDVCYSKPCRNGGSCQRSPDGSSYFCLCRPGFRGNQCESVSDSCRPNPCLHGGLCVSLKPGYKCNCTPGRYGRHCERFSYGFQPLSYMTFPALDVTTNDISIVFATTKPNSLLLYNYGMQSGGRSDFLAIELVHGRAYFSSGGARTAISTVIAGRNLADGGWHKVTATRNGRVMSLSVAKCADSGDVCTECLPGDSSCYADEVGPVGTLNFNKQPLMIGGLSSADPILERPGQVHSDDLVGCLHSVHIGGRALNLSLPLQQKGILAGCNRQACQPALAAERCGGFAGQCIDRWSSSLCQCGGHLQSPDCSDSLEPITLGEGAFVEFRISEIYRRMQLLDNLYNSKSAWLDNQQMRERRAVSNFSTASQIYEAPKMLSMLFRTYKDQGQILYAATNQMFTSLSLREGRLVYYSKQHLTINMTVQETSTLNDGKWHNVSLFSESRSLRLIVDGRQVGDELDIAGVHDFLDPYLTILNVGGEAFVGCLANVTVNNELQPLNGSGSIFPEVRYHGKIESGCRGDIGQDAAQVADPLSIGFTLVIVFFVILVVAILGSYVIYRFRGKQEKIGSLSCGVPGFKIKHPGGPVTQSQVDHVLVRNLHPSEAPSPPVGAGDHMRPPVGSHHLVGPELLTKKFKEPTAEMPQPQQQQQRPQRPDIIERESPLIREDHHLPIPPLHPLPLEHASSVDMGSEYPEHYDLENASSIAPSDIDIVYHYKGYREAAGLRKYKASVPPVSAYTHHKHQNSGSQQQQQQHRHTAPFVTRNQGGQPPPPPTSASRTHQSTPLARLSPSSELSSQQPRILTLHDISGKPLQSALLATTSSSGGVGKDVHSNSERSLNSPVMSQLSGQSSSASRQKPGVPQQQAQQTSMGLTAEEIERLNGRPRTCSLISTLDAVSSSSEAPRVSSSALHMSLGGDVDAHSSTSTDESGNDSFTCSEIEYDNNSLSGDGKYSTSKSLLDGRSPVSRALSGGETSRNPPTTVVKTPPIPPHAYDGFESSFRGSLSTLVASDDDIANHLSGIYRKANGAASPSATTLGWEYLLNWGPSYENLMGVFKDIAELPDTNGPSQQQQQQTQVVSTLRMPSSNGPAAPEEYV

- reduction of binding against the same cells without Fj induction: 40%
Substance: Dachsous (Ds), untagged form, coexpressed with Fj or GNT-Fj (phosphorylated by Fj) (receptor)
